Substrate in series [1]: C[S+](C)(=O)CCC(=O)[O-]
The series can be described thus: HPLC of acrylate, initial rates, non-linear fit. It counts as biochemical, Candidatus Pelagibacter communis. The settings on record: pH 8, 30 °C.

Substrate in series [2]: C[S+](C)(=O)CCC(=O)[O-]
Briefly: HPLC of DMSO, initial rates, non-linear fit. It counts as biochemical, Psychrobacter sp. The settings on record: pH 8, 30 °C, CoA, ATP, Mg2+ present.

Substrate in series [3]: C[S+](C)(=O)CCC(=O)[O-]
The series can be described thus: HPLC of acrylate, initial rates, non-linear fit. It counts as biochemical, Emiliania huxleyi. The settings on record: pH 8, 30 °C.

Substrate in series [4]: C[S+](C)(=O)CCC(=O)[O-]
The series can be described thus: HPLC of acrylate, initial rates, non-linear fit. It is filed as biochemical, Ruegeria pomeroyi. The settings on record: pH 8, 30 °C. From the text:
HPLC of acrylate, initial rates, non-linear fit on DddW | Only the catalytic efficiency of DddW for DMSOP was similar to that for DMSP

Substrate in series [5]: C[S+](C)(=O)CCC(=O)[O-]
The series can be described thus: HPLC of acrylate, initial rates, non-linear fit. It counts as biochemical, Alcaligenes faecalis. The settings on record: pH 8, 30 °C.

This is an account of results in publication PMC10686828, “DMSOP-cleaving enzymes are diverse and widely distributed in marine microorganisms” (Nature Microbiology, 2023).

B1: DddK (Candidatus Pelagibacter ubique HTCC1062) (protein)
chain: MIFVKNLASVLSQEWSSTEKYPGVRWKFLIDADFDGSSGLSLGFAEIAPGGDLTLHYHSPAEIYVVTNGKGILNKSGKLETIKKGDVVYIAGNAEHALKNNGKETLEFYWIFPTDRFSEVEYFPAKQKSG
notes: pET-22b, C-terminal His tag, E. coli BL21(DE3); Ni-NTA and gel filtration; dimer in asymmetric unit; Mn2+
For the protein B1, in series [1], the Km stood at 24.1 ± 3.4 mM and the turnover number (kcat) came out at 14.8 ± 0.9 s⁻¹.

B2: DddX (Psychrobacter sp.) (protein)
chain: LTGQIIEYTIKIQTIYTGNFKHKNGFLKMIERGIAMKKENLKILAKKAQTIAIVGANYRFATRVLLENLDKMDFTGTIYLVNPRYENIDGVRCYQSLLEIEDTIDVVVGLVNPQLMIQVASNASKINAKVLVIPGGGYGESGVEGQNIQNAILERAADSGMRIVGPNCMGYLNMHAQFTPYIGTLHRPLRPIKKGPVSIISQSGSVNDAFIASKLGISKIYSTGNEADVQMHDYLNLLAEDPETSVIILYIEAIRNHLSFLRALDLCSKNKKPVIAIKVGRTIKSAAVANAHSGALAGDYEIEKLFLEGHGVLFVEDIDQAVAVALLLSQPYLPTVNTVAALTVSGGQAGILLDLAEDYGVDFPDFSAVTNYEIASKLPELGGLSNPLDIWGKSSKDFSEVSNICLSSIVKDADIGIITVAIDAPIGQGDHEFDFTSIPAKDLASLRGNSDKPFLYFSHIQTEFDPRVESILDEAGIAVIQGSRNALVACRALFKYKEFLEKNNHTPIYSVEDLSIQKGLKLLHDNEGRKLLDESGFVSPREQVVTSLQEGVDYAESIGYPVVLKAQGLAHKTDVGGVALNIKSAAKLKKAWGKMEHLNSPYYLIQEMVTDGFETILAYRTDMNYGPVVIFGLGGIYTELFNEVVLAVPPITHKKAEQMVKSIPMLWKSIEGYRGNPALDLEALTASIVQMGETAMEKYEEIVEFEINPLSVRVKGVVALDVLASVKTTAAKEADAEEADVKKCSELV
notes: pET-22b, C-terminal His tag, E. coli BL21(DE3); Ni-NTA and gel filtration
Consider B2, for which the Michaelis-Menten constant (Km) in series [2] is recorded as 1 ± 0.2 mM.

B3: Alma1 (Emiliania huxleyi) (protein)
chain: MGNCTSHPHHEPQVHFDTVDGMATVKAFAGIRQVTMGVLRIDYEYQTNLGDILDPRSFDFRIISATAEGLTFAKAKAGDKLDATGKELLERAVRQLIDNGADFIVGDCGFLVYWQVMVRDYAQDYAQKKYGRKCPVMMSSLVLALPLLATIPSGGQIGILTASEKSLQAVQKKLPIVIEDHQKEDGGQRSRSVPAAEDPSGIMINFSDPRFKVVGLDEVKDFKHALDAQGADAVNDRRDIAVQIAAYCQKVQEKNPQIAAWLIECTEAGGFAWAIKVGTGLPVWDPITLGRFLSLGFTANVPNVALTLGQHGENPLDPSATTAGKGRCTGEEPGQIHALGAEFQAIREGTL
notes: as for B2
With B3, in series [3], the Km is listed as 8.8 ± 1.1 mM and the kcat worked out at 0.2 ± 0.01 s⁻¹.

B4: DddW (Ruegeria pomeroyi DSS-3) (protein)
chain: MTAMLDSFATDLTAATSLHQPGNLPHPPHAIDAENVPLSGGTDPTYGEVRWRTLINGTEAAPRDMVLGIAEFGPGHQLRPHRHTPPEFYLGLEGSGIVTIDGVPHEIRAGVALYIPGDAEHGTVAGPEGLRFAYGFASASFEAIEYRFTASA
notes: pET-22b, C-terminal His tag, E. coli BL21(DE3)
For the protein B4, in series [4], the Michaelis-Menten constant (Km) was found to be 11.2 ± 1.6 mM and the kcat is 26.7 ± 3.9 s⁻¹.

B5: A. faecalis DddY (Alcaligenes faecalis) (protein)
chain: AQFQCQDDVKPAAISAEEQKLVDQFWAESLVYLEQYLKALETPTGQCKDSAQATIQTYHSETGKAQTRCIMKYRDMELLAKHLKAVLAEPDKAKACFDPQKNYKEFTLYTPSSQVQQLSATSTWINRPLLTDYYTKMGGAIGAAGLELNENFLAITSRTDTTAHWTRDVSIKGLPTLWSSVGWVPLYAENPAAGSDRFRGGYLYAELMGPWGNLRIKEINGEKVGAEIGMTVQLFNTSYPFHYHHPQETYMTLTKPQCVDQNKYMVMHWDSDQFTQTRSDKGWTVEIDGSKERWKKWFANQDVNKEWLTYFERNAIHAFHALEGCNQTIQNSGLVAVWARSTSQDNEQFTQLCRPASGPDGVKRMRPGQKTVCDVRDWKP
notes: as for B2
For the protein B5, in series [5], the Km was found to be 41.0 mM and the kcat came to 26.5 s⁻¹.
